Assay [1] addresses purified mouse NPM1 mutant mNPM1-214S/217S (mouse) (UniProt Q61937). The assay is described as follows: native gel or EMSA; in vitro NPM1 oligomerization assay: purified NPM1 sonicated in binding buffer (50 mM Tris pH 7.4, 150 mM NaCl, 0.5% NP-40), incubated at RT with the in vitro transcribed first ~2000 nt of LETN, 10% native PAGE, anti-NPM1 blot.
The target of assay [2] is purified mouse NPM1 protein (mouse) (UniProt Q61937). Briefly: native gel or EMSA; in vitro NPM1 oligomerization assay as a5 but without functional LETN (no RNA, scrambled RNA of similar length, or LETN lacking the three NPM1-binding fragments).
Assay [3] deals with mouse NPM1 reintroduced into NPM1-/- HUH7 cells (mouse) (UniProt Q61937). The assay is described as follows: native gel or EMSA; native PAGE of lysates of NPM1-/- HUH7 cells with reintroduced human or mouse NPM1; control and LETN knockdown. Background: In EMSA bound probe runs differently from free probe, usually more slowly.

Here are results for three substances from publication PMC8169757.

By stoichiometry N is commonly meant the number of molecules, sites or subunits per partner or assembly. As for “purified mouse NPM1 mutant mNPM1-214S/217S (from UniProt Q61937 1-292) (natural protein)”, in assay [1], the stoichiometry N was 5.
Substance “purified mouse NPM1 protein (from UniProt Q61937 1-292) (natural protein)” returned a stoichiometry N in assay [2] of 5.
Turning to “mouse NPM1 reintroduced into NPM1-/- HUH7 cells (from UniProt Q61937 1-292) (natural protein)”, the stoichiometry N in assay [3] is 5.
